Measured values taken from US11833164B2, “Methods of treating Fabry disease in patients having a mutation in the GLA gene” (Amicus Therapeutics, Inc., priority 2019, dated 2023).

Tested on: mutant form of α-Gal A expressed in HEK-293 cells
Experiment: HEK assay (GLP HEK / Migalastat Amenability Assay): α-Gal A activity in lysates of transiently transfected HEK-293 cells incubated with or without 10 μM migalastat
Format: cell-based, human
Conditions: for Absolute increase (% WT): 10 μM migalastat versus baseline; for Relative increase: 10 μM migalastat α-Gal A activity relative to baseline; for 10 μM migalastat α-Gal A activity (% WT): 5 days; for 10 μM migalastat α-Gal A activity (% WT) / Baseline α-Gal A activity (% WT): percentage of baseline wild-type α-Gal A activity; for 10 μM migalastat α-Gal A activity (% WT) / Baseline α-Gal A activity (% WT) / Baseline α-Gal A activity / 10 μM migalastat α-Gal A activity: mean ± SEM; for Baseline α-Gal A activity (% WT): absence of migalastat; for Baseline α-Gal A activity / 10 μM migalastat α-Gal A activity: lysates of HEK-293 cells transfected with the mutant form; for Baseline α-Gal A activity: incubated 5 days in the absence of migalastat; for 10 μM migalastat α-Gal A activity: incubated 5 days with 10 μM migalastat
Summary of the method: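 HEK-293 cells transiently transfected with mutant α-Gal A and incubated with or without 10 μM migalastat; lysate activity given as nmol free 4-MU released per mg protein per hour. Values are mean±SEM.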

Row | Molecule | Absolute increase (% WT) | Relative increase | 10 μM migalastat α-Gal A activity (% WT) | Baseline α-Gal A activity (% WT) | Baseline α-Gal A activity | 10 μM migalastat α-Gal A activity
1 | D153N (protein) MQLRNPELHLGCALALRFLALVSWDIPGARALDNGLARTPTMGWLHWERFMCNLDCQEEPDSCISEKLFMEMAELMVSEGWKDAGYEYLCIDDCWMAPQRDSEGRLQADPQRFPHGIRQLANYVHSKGLKLGIYADVGNKTCAGFPGSFGYYNIDAQTFADWGVDLLKFDGCYCDSLENLADGYKHMSLALNRTGRSIVYSCEWPLYMWPFQKPNYTEIRQYCNHWRNFADIDDSWKSIKSILDWTSFNQERIVDVAGPGGWNDPDMLVIGNFGLSWNQQVTQMALWAIMAAPLFMSNDLRHISPQAKALLQDKDVIAINQDPLGKQGYQLRQGDNFEVWERPLSGLAWAVAMINRQEIGGPRSYTIAVASLGKGVACNPACFITQLLPVKRKLGFYEWTSRLRSHINPTGTVLLQLENTMQMSLKDLL | 24.1 % WT | 1.3 | 89.7 ± 4.4 % WT | 65.6 ± 2.8 % WT | 29386 ± 1518 nmol/mg/h | 39338 ± 1551 nmol/mg/h
2 | A156G (protein) MQLRNPELHLGCALALRFLALVSWDIPGARALDNGLARTPTMGWLHWERFMCNLDCQEEPDSCISEKLFMEMAELMVSEGWKDAGYEYLCIDDCWMAPQRDSEGRLQADPQRFPHGIRQLANYVHSKGLKLGIYADVGNKTCAGFPGSFGYYDIDGQTFADWGVDLLKFDGCYCDSLENLADGYKHMSLALNRTGRSIVYSCEWPLYMWPFQKPNYTEIRQYCNHWRNFADIDDSWKSIKSILDWTSFNQERIVDVAGPGGWNDPDMLVIGNFGLSWNQQVTQMALWAIMAAPLFMSNDLRHISPQAKALLQDKDVIAINQDPLGKQGYQLRQGDNFEVWERPLSGLAWAVAMINRQEIGGPRSYTIAVASLGKGVACNPACFITQLLPVKRKLGFYEWTSRLRSHINPTGTVLLQLENTMQMSLKDLL | 16.9 % WT | 1.4 | 63.6 ± 4.3 % WT | 46.7 ± 2.7 % WT | 17406 ± 1187 nmol/mg/h | 23415 ± 1710 nmol/mg/h
3 | Q157L (protein) MQLRNPELHLGCALALRFLALVSWDIPGARALDNGLARTPTMGWLHWERFMCNLDCQEEPDSCISEKLFMEMAELMVSEGWKDAGYEYLCIDDCWMAPQRDSEGRLQADPQRFPHGIRQLANYVHSKGLKLGIYADVGNKTCAGFPGSFGYYDIDALTFADWGVDLLKFDGCYCDSLENLADGYKHMSLALNRTGRSIVYSCEWPLYMWPFQKPNYTEIRQYCNHWRNFADIDDSWKSIKSILDWTSFNQERIVDVAGPGGWNDPDMLVIGNFGLSWNQQVTQMALWAIMAAPLFMSNDLRHISPQAKALLQDKDVIAINQDPLGKQGYQLRQGDNFEVWERPLSGLAWAVAMINRQEIGGPRSYTIAVASLGKGVACNPACFITQLLPVKRKLGFYEWTSRLRSHINPTGTVLLQLENTMQMSLKDLL | 60.2 % WT | 5.1 | 74.4 ± 4.3 % WT | 14.3 ± 1.5 % WT | 5734 ± 700 nmol/mg/h | 28942 ± 2013 nmol/mg/h
4 | Q157E (protein) MQLRNPELHLGCALALRFLALVSWDIPGARALDNGLARTPTMGWLHWERFMCNLDCQEEPDSCISEKLFMEMAELMVSEGWKDAGYEYLCIDDCWMAPQRDSEGRLQADPQRFPHGIRQLANYVHSKGLKLGIYADVGNKTCAGFPGSFGYYDIDAETFADWGVDLLKFDGCYCDSLENLADGYKHMSLALNRTGRSIVYSCEWPLYMWPFQKPNYTEIRQYCNHWRNFADIDDSWKSIKSILDWTSFNQERIVDVAGPGGWNDPDMLVIGNFGLSWNQQVTQMALWAIMAAPLFMSNDLRHISPQAKALLQDKDVIAINQDPLGKQGYQLRQGDNFEVWERPLSGLAWAVAMINRQEIGGPRSYTIAVASLGKGVACNPACFITQLLPVKRKLGFYEWTSRLRSHINPTGTVLLQLENTMQMSLKDLL | 24.1 % WT | 1.3 | 101.5 ± 6.1 % WT | 77.4 ± 4.1 % WT | 28269 ± 1306 nmol/mg/h | 37204 ± 2126 nmol/mg/h
5 | D153V (protein) MQLRNPELHLGCALALRFLALVSWDIPGARALDNGLARTPTMGWLHWERFMCNLDCQEEPDSCISEKLFMEMAELMVSEGWKDAGYEYLCIDDCWMAPQRDSEGRLQADPQRFPHGIRQLANYVHSKGLKLGIYADVGNKTCAGFPGSFGYYVIDAQTFADWGVDLLKFDGCYCDSLENLADGYKHMSLALNRTGRSIVYSCEWPLYMWPFQKPNYTEIRQYCNHWRNFADIDDSWKSIKSILDWTSFNQERIVDVAGPGGWNDPDMLVIGNFGLSWNQQVTQMALWAIMAAPLFMSNDLRHISPQAKALLQDKDVIAINQDPLGKQGYQLRQGDNFEVWERPLSGLAWAVAMINRQEIGGPRSYTIAVASLGKGVACNPACFITQLLPVKRKLGFYEWTSRLRSHINPTGTVLLQLENTMQMSLKDLL | 25.0 % WT | 2.2 | 42.4 ± 1.6 % WT | 17.4 ± 2 % WT | 7357 ± 1139 nmol/mg/h | 16301 ± 766 nmol/mg/h
6 | Q157P (protein) MQLRNPELHLGCALALRFLALVSWDIPGARALDNGLARTPTMGWLHWERFMCNLDCQEEPDSCISEKLFMEMAELMVSEGWKDAGYEYLCIDDCWMAPQRDSEGRLQADPQRFPHGIRQLANYVHSKGLKLGIYADVGNKTCAGFPGSFGYYDIDAPTFADWGVDLLKFDGCYCDSLENLADGYKHMSLALNRTGRSIVYSCEWPLYMWPFQKPNYTEIRQYCNHWRNFADIDDSWKSIKSILDWTSFNQERIVDVAGPGGWNDPDMLVIGNFGLSWNQQVTQMALWAIMAAPLFMSNDLRHISPQAKALLQDKDVIAINQDPLGKQGYQLRQGDNFEVWERPLSGLAWAVAMINRQEIGGPRSYTIAVASLGKGVACNPACFITQLLPVKRKLGFYEWTSRLRSHINPTGTVLLQLENTMQMSLKDLL | 40.6 % WT | 5.4 | 49.6 ± 3.4 % WT | 9 ± 1 % WT | 3887 ± 487 nmol/mg/h | 20888 ± 1527 nmol/mg/h
7 | Q157K (protein) MQLRNPELHLGCALALRFLALVSWDIPGARALDNGLARTPTMGWLHWERFMCNLDCQEEPDSCISEKLFMEMAELMVSEGWKDAGYEYLCIDDCWMAPQRDSEGRLQADPQRFPHGIRQLANYVHSKGLKLGIYADVGNKTCAGFPGSFGYYDIDAKTFADWGVDLLKFDGCYCDSLENLADGYKHMSLALNRTGRSIVYSCEWPLYMWPFQKPNYTEIRQYCNHWRNFADIDDSWKSIKSILDWTSFNQERIVDVAGPGGWNDPDMLVIGNFGLSWNQQVTQMALWAIMAAPLFMSNDLRHISPQAKALLQDKDVIAINQDPLGKQGYQLRQGDNFEVWERPLSGLAWAVAMINRQEIGGPRSYTIAVASLGKGVACNPACFITQLLPVKRKLGFYEWTSRLRSHINPTGTVLLQLENTMQMSLKDLL | 55.6 % WT | 3.2 | 79.7 ± 5 % WT | 24.1 ± 1.8 % WT | 9815 ± 1083 nmol/mg/h | 31331 ± 2428 nmol/mg/h
8 | D153Y (protein) MQLRNPELHLGCALALRFLALVSWDIPGARALDNGLARTPTMGWLHWERFMCNLDCQEEPDSCISEKLFMEMAELMVSEGWKDAGYEYLCIDDCWMAPQRDSEGRLQADPQRFPHGIRQLANYVHSKGLKLGIYADVGNKTCAGFPGSFGYYYIDAQTFADWGVDLLKFDGCYCDSLENLADGYKHMSLALNRTGRSIVYSCEWPLYMWPFQKPNYTEIRQYCNHWRNFADIDDSWKSIKSILDWTSFNQERIVDVAGPGGWNDPDMLVIGNFGLSWNQQVTQMALWAIMAAPLFMSNDLRHISPQAKALLQDKDVIAINQDPLGKQGYQLRQGDNFEVWERPLSGLAWAVAMINRQEIGGPRSYTIAVASLGKGVACNPACFITQLLPVKRKLGFYEWTSRLRSHINPTGTVLLQLENTMQMSLKDLL | 23.3 % WT | 1.8 | 52.4 ± 2.8 % WT | 29.1 ± 3.1 % WT | 12609 ± 1299 nmol/mg/h | 22535 ± 1174 nmol/mg/h
